Reference: patent CN112300289A (UNIV CHINA PHARMA, dated 2021)

Experiments:
[1] = biological target: TNFα; assay: cell-based or functional assay
[2] = biological target: T1, 整合素αvβ3 (human, UniProt P06756 31-1048; P05106 27-788); assay: concluded from the MDA-MB-231 cell adhesion assay; no direct binding assay
T1 construct: whole, on cells; The adhesion assay used whole MDA-MB-231 cells; also called 整合素αvβ3受体; 玻连蛋白(Vitronectin,VN)受体
T1 sequence (P06756 31-1048, chain 1 of 2): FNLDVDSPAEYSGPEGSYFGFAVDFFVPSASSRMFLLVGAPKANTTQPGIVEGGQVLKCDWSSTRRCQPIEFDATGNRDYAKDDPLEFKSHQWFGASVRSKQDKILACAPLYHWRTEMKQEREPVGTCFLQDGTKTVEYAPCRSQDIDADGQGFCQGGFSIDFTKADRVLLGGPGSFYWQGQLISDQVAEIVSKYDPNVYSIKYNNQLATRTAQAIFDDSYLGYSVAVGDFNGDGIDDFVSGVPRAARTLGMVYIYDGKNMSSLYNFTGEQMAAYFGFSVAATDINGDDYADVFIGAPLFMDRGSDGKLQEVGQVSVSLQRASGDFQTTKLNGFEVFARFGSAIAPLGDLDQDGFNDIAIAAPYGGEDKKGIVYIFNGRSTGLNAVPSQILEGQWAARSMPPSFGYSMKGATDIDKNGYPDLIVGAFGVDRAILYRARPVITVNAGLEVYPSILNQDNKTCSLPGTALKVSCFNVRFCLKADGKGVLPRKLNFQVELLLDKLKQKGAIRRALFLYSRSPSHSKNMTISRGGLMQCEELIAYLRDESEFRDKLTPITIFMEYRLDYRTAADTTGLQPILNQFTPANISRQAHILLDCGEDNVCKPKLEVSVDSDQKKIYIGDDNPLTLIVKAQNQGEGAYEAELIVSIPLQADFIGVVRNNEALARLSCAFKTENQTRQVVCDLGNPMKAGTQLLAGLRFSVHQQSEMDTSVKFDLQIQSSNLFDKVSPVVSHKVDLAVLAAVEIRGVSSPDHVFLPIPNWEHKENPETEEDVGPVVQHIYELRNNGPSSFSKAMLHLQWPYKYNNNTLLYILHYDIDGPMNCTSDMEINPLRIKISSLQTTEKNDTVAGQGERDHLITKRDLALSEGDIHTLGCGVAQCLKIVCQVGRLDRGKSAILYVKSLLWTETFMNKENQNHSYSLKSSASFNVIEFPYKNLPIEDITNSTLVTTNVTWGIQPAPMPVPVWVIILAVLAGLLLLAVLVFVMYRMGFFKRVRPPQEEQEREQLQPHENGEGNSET
T1 sequence (P05106 27-788, chain 2 of 2): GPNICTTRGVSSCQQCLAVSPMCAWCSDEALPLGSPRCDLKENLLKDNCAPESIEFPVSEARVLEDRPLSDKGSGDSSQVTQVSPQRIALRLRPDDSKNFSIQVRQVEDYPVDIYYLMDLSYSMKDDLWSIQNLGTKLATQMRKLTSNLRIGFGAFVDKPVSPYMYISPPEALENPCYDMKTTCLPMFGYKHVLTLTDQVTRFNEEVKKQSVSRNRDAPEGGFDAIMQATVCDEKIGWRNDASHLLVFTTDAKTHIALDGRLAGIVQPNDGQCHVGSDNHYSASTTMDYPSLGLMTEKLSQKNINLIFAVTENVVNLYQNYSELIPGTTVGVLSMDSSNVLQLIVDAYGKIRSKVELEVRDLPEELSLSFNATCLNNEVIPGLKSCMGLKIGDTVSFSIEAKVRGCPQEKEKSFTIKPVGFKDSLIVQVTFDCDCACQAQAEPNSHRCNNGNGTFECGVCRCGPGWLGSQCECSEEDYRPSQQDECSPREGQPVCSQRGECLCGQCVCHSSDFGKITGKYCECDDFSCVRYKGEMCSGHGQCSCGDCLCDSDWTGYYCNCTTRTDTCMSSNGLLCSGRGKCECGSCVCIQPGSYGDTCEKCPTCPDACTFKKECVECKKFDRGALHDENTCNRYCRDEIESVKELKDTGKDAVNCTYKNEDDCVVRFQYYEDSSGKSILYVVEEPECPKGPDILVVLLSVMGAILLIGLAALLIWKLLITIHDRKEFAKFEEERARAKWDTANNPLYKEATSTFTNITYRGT

Chain of TNFα (P01375 77-233): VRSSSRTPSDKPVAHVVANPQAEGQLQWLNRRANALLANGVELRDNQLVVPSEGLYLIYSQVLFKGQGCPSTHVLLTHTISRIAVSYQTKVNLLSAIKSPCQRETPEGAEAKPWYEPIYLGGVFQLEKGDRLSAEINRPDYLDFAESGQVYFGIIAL

Binder	IC50, inhibition of TNFα cytotoxicity on L929 cells (MTT) [1] [nM]	binding result [2]
RGD4C融合抗TNFα纳米抗体 N端-VHH-Linker-RGD4C-6HIS-C端 (VHH, also called V-L-R-H; RGD4C-anti-TNFα-Nanobody) VHH: QVQLVESGGGLVQAGGSLRLSCTASGQTSSTADMGWFRQPPGKGREFVARISGIDGTTYYDEPVKGRFTISRDKAQNTVYLQMDSLKPEDTAVYYCRSPRYADQWSAYDYWGQGTQVTVSS	0.106	binds
RGD4C融合抗TNFα纳米抗体 N端-RGD4C-Linker-6HIS-VHH-C端 (VHH) VHH: QVQLVESGGGLVQAGGSLRLSCTASGQTSSTADMGWFRQPPGKGREFVARISGIDGTTYYDEPVKGRFTISRDKAQNTVYLQMDSLKPEDTAVYYCRSPRYADQWSAYDYWGQGTQVTVSS	0.187	–
RGD4C融合抗TNFα纳米抗体 N端-VHH-6HIS-Linker-RGD4C-C端 (VHH) VHH: QVQLVESGGGLVQAGGSLRLSCTASGQTSSTADMGWFRQPPGKGREFVARISGIDGTTYYDEPVKGRFTISRDKAQNTVYLQMDSLKPEDTAVYYCRSPRYADQWSAYDYWGQGTQVTVSS	0.113	–
